Test results as given in IntAct's records for PubMed 16343974.

B1: Membrane protein (Human SARS coronavirus), P59596 (parent)
chain: MADNGTITVEELKQLLEQWNLVIGFLFLAWIMLLQFAYSNRNRFLYIIKLVFLWLLWPVTLACFVLAAVYRINWVTGGIAIAMACIVGLMWLSYFVASFRLFARTRSMWSFNPETNILLNVPLRGTIVTRPLMESELVIGAVIIRGHLRMAGHSLGRCDIKDLPKEITVATSRTLSYYKLGASQRVGTDSGFAAYNRYRIGNYKLNTDHAGSNDNIALLVQ

Variants of: B1
Settings: with ncap_sars N

Variant | effect of a mutation on the interaction
L218A;L219A | with no effect
